From paper PMC4825019 come the findings set out here.

For assay [1], the target named is synaptophysin (endogenous) (mouse (endogenous in C57BL/6 brain)) (UniProt Q62277). The experiment in a line: co-IP; reverse co-IP from dephosphorylated wild-type mouse brain lysate (neither heated nor dialyzed) with antibodies for synaptophysin, β-synuclein or apoA1; blot probed with Dako Tau antibody, the three Tau isoforms quantified with ImageJ.
Assay [2] has as its target β-synuclein (endogenous) (mouse (endogenous in C57BL/6 brain)) (UniProt Q91ZZ3). The assay is described as above.
Assay [3] shares this target. Described as above. The source holds these as a separate data set.
Assay [4] has as its target recombinant 2N Tau (Mtau2310, 2N4R, with N-terminal GST tag) (murine). The experiment in a line: ELISA; plates coated overnight at 4 °C with recombinant 0N, 1N or 2N Tau at 10 μg/ml in PBS, blocked with 3% BSA; recombinant β-synuclein and synaptophysin at 10 μg/ml in PBS for 1 h at room temperature, detected with anti-V5; recombinant apoA1 detected with an anti-apoA1 antibody; absorbance at 450 nm after subtraction of BSA-coated wells. For orientation: In an ELISA, binding on a coated surface is turned into a signal by an enzyme label.

Assay [5] has as its target recombinant 1N Tau (Mtau210, 1N4R, with N-terminal GST tag) (murine). Described as above.

Read-outs that look alike come from different tables or passages of the source.

Sequence of UniProt Q62277 (Q62277 whole entry, canonical isoform): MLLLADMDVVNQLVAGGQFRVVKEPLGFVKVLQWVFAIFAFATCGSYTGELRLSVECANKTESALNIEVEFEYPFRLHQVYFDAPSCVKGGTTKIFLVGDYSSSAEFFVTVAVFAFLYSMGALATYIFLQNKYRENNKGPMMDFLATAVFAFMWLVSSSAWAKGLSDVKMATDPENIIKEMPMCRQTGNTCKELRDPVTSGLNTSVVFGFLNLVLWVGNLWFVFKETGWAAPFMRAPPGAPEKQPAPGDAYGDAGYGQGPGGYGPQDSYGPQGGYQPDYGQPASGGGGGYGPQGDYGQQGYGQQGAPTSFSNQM

On to 1N Tau (endogenous) (natural protein), for which the ratio to 0N Tau (Western blot of the reverse IP) was 0.97 in assay [1], 0.41 in assay [2] and 0.897 in assay [3].
Consider 2N Tau (endogenous) (natural protein), for which the figures for the ratio to 0N Tau (Western blot of the reverse IP) in assay [1], in assay [2] and in assay [3] were 0.93, 0.37 and 0.5, respectively.
In the case of “recombinant β-synuclein (C-terminal His6 and V5 tag) (from UniProt Q91ZZ3 1-133) (natural protein)”, the values for the ratio to 0N Tau (ELISA absorbance) in assay [4] and in assay [5] were 0.26 and 0.63, respectively.
